Reference: article PMC4428384, “Differences in conformational dynamics within the Hsp90 chaperone family reveal mechanistic insights” (Frontiers in Molecular Biosciences, 2014)

Assays:
[1] = molecular target: the molecule itself; test: FRET or BRET; subunit exchange as in a1, in the presence of ADP
[2] = molecular target: the molecule itself; test: FRET or BRET; subunit exchange as in a1, in the presence of ATP
[3] = molecular target: the molecule itself; test: FRET or BRET; subunit exchange, dimer to monomers: ATTO 488 and ATTO 550 labeled proteins combined (400 nM each), rapidly mixed 1:1 with unlabeled protein (20 μM) in a stopped-flow device, 480 nm excitation, 590 nm cut-off filter; no nucleotide (apo)

B1: hHsp90β-E20C,C366A,C412T,C521A,C564T,C589A,C590A, labeled with ATTO 488 or ATTO 550 (natural protein)
chain: not shown
modifications: ATTO 488 maleimide or ATTO 550 maleimide on the single cysteine (E20C)
notes: human Hsp90β; single cysteine variant with the natural cysteines replaced; Homodimeric protein; the rows are protomer with protomer
For B1, the subunit exchange rate [1] was 0.016 s⁻¹, the subunit exchange rate [2] was 0.01 s⁻¹ and the subunit exchange rate [3] was 0.016 s⁻¹.
